From publication PMC4485320

How the values were obtained:
[1] = biological target: E. coli thioredoxin reductase (Escherichia coli) (UniProt P0A9P4)
[2] = biological target: E. coli thioredoxin reductase (Escherichia coli) (UniProt P0A9P4); remark: listed apart in the source

Sequence of UniProt P0A9P4 (P0A9P4 whole entry): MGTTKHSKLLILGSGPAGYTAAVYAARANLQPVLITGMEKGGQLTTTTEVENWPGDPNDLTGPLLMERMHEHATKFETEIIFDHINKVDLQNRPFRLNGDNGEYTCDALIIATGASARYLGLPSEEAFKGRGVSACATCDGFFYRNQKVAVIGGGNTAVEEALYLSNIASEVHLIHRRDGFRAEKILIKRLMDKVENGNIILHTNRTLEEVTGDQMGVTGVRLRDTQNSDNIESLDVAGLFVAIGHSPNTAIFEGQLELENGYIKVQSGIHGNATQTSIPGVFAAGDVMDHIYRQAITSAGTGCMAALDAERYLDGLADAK

Substance: Escherichia coli thioredoxin, wild type (from UniProt P0AA25 1-109) (natural protein)
- kcat of the reduction of the Trx variant by TrxR (Michaelis-Menten kinetics, DTNB/NADPH assay) [1]: 10 s⁻¹
- kcat/KM of the reduction of Trx by TrxR [2]: > 1e+06 M⁻¹ s⁻¹
